Laboratory results from article PMC7267773, “CCDC61/VFL3 Is a Paralog of SAS6 and Promotes Ciliary Functions” (Structure(London, England:1993), 2020).

Key:
[1] = target: the molecule itself; assay: AUC; velocity sedimentation, approximately 480 μM (7.9 mg/ml), 20 mM Tris-HCl pH 8.0, 150 mM NaCl, 2 mM DTT, 50,000 rpm, 4°C; c(s) distribution
[2] = target: the molecule itself; assay: AUC; sedimentation equilibrium, 12, 4 and 1.3 mg/ml, 11,600, 19,700 and 34,000 rpm, 4°C; dimer to monomers
[3] = target: the molecule itself; assay: crystal structure; zCCDC61^1-170, 4.62 mg/ml, 100 mM Citric acid pH 5.0, 1 M LiCl, sitting drop, 20°C
[4] = target: the molecule itself; assay: SEC-MALS; Superdex S200 10/300, 10mM Tris-HCl pH 7.4, 150mM NaCl, room temperature; loaded at 1, 6.5 and 65 mg/ml (wild type) and 1, 6.8 and 73 mg/ml (F129E/D130A)

B1: N-terminal head domain of human CCDC61 (hCCDC61^1-143) (domain or fragment)
chain: GSMDQPAGLQVDYVFRGVEHAVRVMVSGQVLELEVEDRMTADQWRGEFDAGFIEDLTHKTGNFKQFNIFCHMLESALTQSSESVTLDLLTYTDLESLRNRKMGGRPGSLAPRSAQLNSKRYLILIYSVEFDRIHYPLPLPYQGKP
notes: extra residues Gly-Ser left at the N-terminus after the His-GST tag was cleaved with tev protease; gene codon optimized for E. coli and synthesized; The crystal (PDB 6HXT) was of the seleno-methionine-substituted protein; also called hCCDC61 head domain; source: E. coli BL21(DE3), purified (GSTrap, tev cleavage, HisTrap flow through, HiTrap Q, PD-10); not shown: His tag, N-terminal, cleaved; GST, …
For B1, which “stoichiometry N” value [1] is on record?
The value was 2.

What about the Kd [2] of the same protein?
The Kd was 170 ± 18 µM.

B2: zebrafish CCDC61 (residues 1–170; zCCDC61^1-170), lipoyl-domain tag removed (domain or fragment, zebrafish (Danio rerio))
chain: GGSMEVGTVVQEEMKFRGSEFAVKVEMAERLLIVEISDVVTADQWRGEFGPAYIEDLTRKTGNFKQFPVFCSMLESAVHKSSDSVTLDLLTYSDLELLRNRKAGVVGRPRAQPQSPALSAKRYLILIYTVEFDRIHYPLPLPYLGKPDPAELQKEIRALRSELKTLGLRGDHK
notes: extra residues Gly-Gly-Ser left at the N-terminus after the tag was cleaved with tev protease; zebrafish (Danio rerio) CCDC61, residues 1-170, head and part of the coiled-coil domain; Homo-tetramer in the crystal; source: E. coli C41, purified (Ni-NTA, tev cleavage, HisTrap FF, HiTrap Q HP flow through, PD-10); not shown: His tag, N-terminal, cleaved; lipoyl domain (Bacillus stearothermophilus …)
How did the “stoichiometry N” value [3] turn out when B2 was run?
Its value is 4.

B3: His6-lipoyl-zCCDC61^1-170 (domain or fragment, zebrafish (Danio rerio), UniProt Q08CF3 1-170, looked up)
chain: MEVGTVVQEEMKFRGSEFAVKVEMAERLLIVEISDVVTADQWRGEFGPAYIEDLTRKTGNFKQFPVFCSMLESAVHKSSDSVTLDLLTYSDLELLRNRKAGVVGRPRAQPQSPALSAKRYLILIYTVEFDRIHYPLPLPYLGKPDPAELQKEIRALRSELKTLGLRGDHK
notes: zebrafish (Danio rerio) CCDC61, residues 1-170; The His6-lipoyl domain tag was retained for SEC-MALS to stabilize the protein at high concentrations; also called Lipo-zCCDC61^1-170; wild-type; source: E. coli C41 in 2xTY, purified (Ni-NTA, SEC, HiTrap Q-FF); not shown: His6, N-terminal, kept; lipoyl domain (Bacillus stearothermophilus dihydrolipoamide acetyltransferase), N-terminal, kept
Does B3 bind [4]?
Result: binds

B4: His6-lipoyl-zCCDC61^(1-170; F129E/D130A) (domain or fragment, zebrafish (Danio rerio), UniProt Q08CF3 1-170, looked up)
chain: MEVGTVVQEEMKFRGSEFAVKVEMAERLLIVEISDVVTADQWRGEFGPAYIEDLTRKTGNFKQFPVFCSMLESAVHKSSDSVTLDLLTYSDLELLRNRKAGVVGRPRAQPQSPALSAKRYLILIYTVEEARIHYPLPLPYLGKPDPAELQKEIRALRSELKTLGLRGDHK
notes: zebrafish (Danio rerio) CCDC61, residues 1-170, with F129E and D130A; also called Lipo-zCCDC61^(1-170); head-to-head dimerization-deficient mutant; source: E. coli C41 in 2xTY, purified (Ni-NTA, SEC, HiTrap Q-FF); not shown: His6, N-terminal, kept; lipoyl domain (Bacillus stearothermophilus dihydrolipoamide acetyltransferase), N-terminal, kept
Does B4 bind [4]?
Result: binds
